The test system of data set [1] is T1, CC(=O)c1ccc[n+]([C@@H]2O[C@H](COP(=O)([O-])OP(=O)(O)OC[C@H]3O[C@@H](n4cnc5c(N)ncnc54)[C@H](O)[C@@H]3O)[C@@H](O)[C@H]2O)c1.
T1 construct: recombinant rBmLDH
In words: enzyme kinetics (Km), lactate to pyruvate, comparison enzyme. The class given is biochemical, Babesia microti. The note with it: varied: cofactor.

Data set [2] concerns the target recombinant Babesia orientalis lactate dehydrogenase (Babesia orientalis). In words: crystal structure; apo rBoLDH, hanging drop vapour diffusion at 20°C, 1 M lithium chloride, 0.1 M sodium acetate, 25-30% PEG 6000; space group P1, 2.67 Å.
Data set [3] shares this target. The experiment in a line: native gel or EMSA; 8% blue native-PAGE of purified rBoLDH, without sodium dodecyl sulfate; ~160 kDa band. A general note: A gel shift assay detects complexes by their altered migration in electrophoresis.

Drawing on PMC8766848, “The Structural Basis of Babesia orientalis Lactate Dehydrogenase” (Frontiers in Cellular and Infection Microbiology, 2022), this text covers Km and stoichiometry N for 2 substances.

As usually defined, the Km is the concentration of substrate that gives half-maximal velocity. On to “Babesia microti lactate dehydrogenase (BmLDH) (Babesia microti strain RI)”, for which, in data set [1], the Michaelis-Menten constant (Km) was 880 ± 120 µM.

Usually stoichiometry N stands for a count of units in the complex or per binding partner. As for “recombinant Babesia orientalis lactate dehydrogenase (enzyme)”, the stoichiometry N in data set [2] and in data set [3] was 4 in each case.
